Assay results taken from patent US20240366776A1 (Hoffmann-La Roche, published 2024).

T1: biotinylated IL-2 receptor beta gamma heterodimer Fc (IL-2RBG; Acro ILG-H5254) (UniProt P14784 27-239; P31785 23-262, biotinylated)
T1 construct: bought heterodimer
T1 sequence (looked up) 1: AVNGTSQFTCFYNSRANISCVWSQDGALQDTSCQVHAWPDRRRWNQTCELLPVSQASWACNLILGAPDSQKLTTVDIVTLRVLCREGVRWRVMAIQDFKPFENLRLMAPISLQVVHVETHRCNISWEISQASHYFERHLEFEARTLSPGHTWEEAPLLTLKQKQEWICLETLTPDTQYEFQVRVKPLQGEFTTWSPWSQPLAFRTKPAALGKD
T1 sequence (looked up) 2: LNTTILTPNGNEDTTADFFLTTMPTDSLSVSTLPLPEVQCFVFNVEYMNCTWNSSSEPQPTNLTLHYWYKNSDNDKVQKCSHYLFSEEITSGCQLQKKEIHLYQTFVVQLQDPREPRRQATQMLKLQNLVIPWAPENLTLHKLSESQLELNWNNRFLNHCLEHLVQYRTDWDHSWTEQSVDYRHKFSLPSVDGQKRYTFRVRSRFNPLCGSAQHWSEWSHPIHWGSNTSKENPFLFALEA


Legend:
IL2 (R&D, 202-IL) = IL2 (R&D, 202-IL) (UniProt P60568 21-153); assay: ELISA, scFv on anti-V5
Description: The scFv DNA sequence for each clone was synthesized as a GBLOCK® (Integrated DNA Technologies, Inc.) with a T7 promoter, a translation initiation site, the coding sequence for the scFv sequence with cMyc and V5 tags, and a T7 terminator sequence. Proteins from each of the GBLOCK® fragments were expressed using a cell-free transcription/translation system (Cosmo Bio USA, Inc., PUREFREX® 2.1, Product #GFK-PF213 with DS Supplement, Prod. #GFK-PF005). […] In these experiments, wells of a 384-well plate were coated with an anti-V5 antibody (Sv5-Pk1, BioRad) at lug/ml overnight at 4 degrees. After washing, wells were blocked with SUPERBLOCK™ (ThermoFisher, 37515) followed by addition of saturating levels of scFvs in SUPERBLOCK™. After washing, antigens were added and plates incubated for one hour. To detect PD1 binding, a biotinylated recombinant PD1 was used (PD1-HisAvi, Acro Biosystems, PD1-H82E4). […] Biotinylated antigens were detected using streptavidin HRP using standard methods. Varying amounts of labelled test antigen were added to show binding and to estimate relative affinities of the different scFvs.

[1] = target: T1, biotinylated IL-2 receptor beta gamma …; assay: ELISA, captured complex, biotin-IL-2RBG titrated

binding result (IL2 (R&D, 202-IL)) | binding result [1] | Binder
no binding | – | AB000694 (anti-PD1 control) scFv (AF005039) (scFv, V domains shown, scFv with cMyc and V5 tags; also called AB000694_nivo) VH: QVQLVESGGGVVQPGRSLRLDCKASGITFSNSGMHWVRQAPGKGLEWVAVIWYDGSKRYYADSVKGRFTISRDNSKNTLFLQMNSLRAEDTAVYYCATNDDYWGQGTLVTVSS VL: EIVLTQSPATLSLSPGERATLSCRASQSVSSYLAWYQQKPGQAPRLLIYDASNRATGIPARFSGSGSGTDFTLTISSLEPEDFAVYYCQQSSNWPRTFGQGTKVEIK
– | binds | AF004695 (other, also called AF4695) heavy 1: QVQLVESGGGVVQPGRSLRLDCKASGITFSNSGMHWVRQAPGKGLEWVAVIWYDGSKRYYADSVKGRFTISRDNSKNTLFLQMNSLRAEDTAVYYCATNDDYWGQGTLVTVSSAKTTAPSVYPLAPVCGDTTGSSVTLGCLVKGYFPEPVTLTWNSGSLSSGVHTFPAVLQSDLYTLSSSVTVTSSTWPSQSITCNVAHPASSTKVDKKIEPRGPTIKPCPPCKCPAPNAAGGPSVFIFPPKIKDVLMISLSPIVTCVVVDVSEDDPDVQISWFVNNVEVHTAQTQTHREDYNSTLRVVSALPIQHQDWMSGKEFKCKVNNKDLGAPIERTISKPKGSVRAPQVYVLPPPEEEMTKKQVTLTCMVTDFMPEDIYVEWTNNGKTELNYKNTEPVLDSDGSYFMYSDLRVEKKNWVERNSYSCSVVHEGLHNHHTTESFSRTPGGGGGSGGGGSGGGGSAPTSSSTKKTQLQLEHLLLDLQMILNGINNYKNPKLTDMLTFEFYMPKKATELKHLQCLERELKPLEEVLNLAQSKNFHLRPRDLISNINVIVLELKGSETTFMCEYADETATIVEFLNRWITFCQSIISTLT heavy 2: QVQLVESGGGVVQPGRSLRLDCKASGITFSNSGMHWVRQAPGKGLEWVAVIWYDGSKRYYADSVKGRFTISRDNSKNTLFLQMNSLRAEDTAVYYCATNDDYWGQGTLVTVSSAKTTAPSVYPLAPVCGDTTGSSVTLGCLVKGYFPEPVTLTWNSGSLSSGVHTFPAVLQSDLYTLSSSVTVTSSTWPSQSITCNVAHPASSTKVDKKIEPRGPTIKPCPPCKCPAPNAAGGPSVFIFPPKIKDVLMISLSPIVTCVVVDVSEDDPDVQISWFVNNVEVHTAQTQTHREDYNSTLRVVSALPIQHQDWMSGKEFKCKVNNKDLGAPIERTISKPKGSVRAPQVYVLPPPEKEMTKKQVSLTCLVKDFMPEDIYVEWTNNGKTELNYKNTEPVLKSDGSYFMYSKLTVEKKNWVERNSYSCSVVHEGLHNHHTTKSFSRTPGGGGGSGGGGSGGGGSGGGGSQVQLVQSGAEVKKPGASVKVSCKASGDTFTRYYVHWVRQAPGQGLEWMGIINPSGGYASYAQKFQGRVTMTRDTSTSTVYMELSSLRSEDTAVYYCAAGLFIWGQGTLVTVSSASGGGGSGGGGSGGGGSHASDIQMTQSPSSLSASVGDRVTITCRASQSIGRWLAWYQQKPGKAPKLLIYSASNLETGVPSRFSGSGSGTDFTLTISSLQPEDFATYYCQQYNRFPVTFGPGTKVDIK light: EIVLTQSPATLSLSPGERATLSCRASQSVSSYLAWYQQKPGQAPRLLIYDASNRATGIPARFSGSGSGTDFTLTISSLEPEDFAVYYCQQSSNWPRTFGQGTKVEIKRADAAPTVSIFPPSSEQLTSGGASVVCFLNNFYPKDINVKWKIDGSERQNGVLNSWTDQDSKDSTYSMSSTLTLTKDEYERHNSYTCEATHKTSTSPIVKSFNRNEC
– | binds | AF004696 (other, also called AF4696) heavy 1: QVQLVESGGGVVQPGRSLRLDCKASGITFSNSGMHWVRQAPGKGLEWVAVIWYDGSKRYYADSVKGRFTISRDNSKNTLFLQMNSLRAEDTAVYYCATNDDYWGQGTLVTVSSAKTTAPSVYPLAPVCGDTTGSSVTLGCLVKGYFPEPVTLTWNSGSLSSGVHTFPAVLQSDLYTLSSSVTVTSSTWPSQSITCNVAHPASSTKVDKKIEPRGPTIKPCPPCKCPAPNAAGGPSVFIFPPKIKDVLMISLSPIVTCVVVDVSEDDPDVQISWFVNNVEVHTAQTQTHREDYNSTLRVVSALPIQHQDWMSGKEFKCKVNNKDLGAPIERTISKPKGSVRAPQVYVLPPPEEEMTKKQVTLTCMVTDFMPEDIYVEWTNNGKTELNYKNTEPVLDSDGSYFMYSDLRVEKKNWVERNSYSCSVVHEGLHNHHTTESFSRTPGGGGGSGGGGSGGGGSAPTSSSTKKTQLQLEHLLLDLQMILNGINNYKNPKLTDMLTFEFYMPKKATELKHLQCLERELKPLEEVLNLAQSKNFHLRPRDLISNINVIVLELKGSETTFMCEYADETATIVEFLNRWITFCQSIISTLT heavy 2: QVQLVESGGGVVQPGRSLRLDCKASGITFSNSGMHWVRQAPGKGLEWVAVIWYDGSKRYYADSVKGRFTISRDNSKNTLFLQMNSLRAEDTAVYYCATNDDYWGQGTLVTVSSAKTTAPSVYPLAPVCGDTTGSSVTLGCLVKGYFPEPVTLTWNSGSLSSGVHTFPAVLQSDLYTLSSSVTVTSSTWPSQSITCNVAHPASSTKVDKKIEPRGPTIKPCPPCKCPAPNAAGGPSVFIFPPKIKDVLMISLSPIVTCVVVDVSEDDPDVQISWFVNNVEVHTAQTQTHREDYNSTLRVVSALPIQHQDWMSGKEFKCKVNNKDLGAPIERTISKPKGSVRAPQVYVLPPPEKEMTKKQVSLTCLVKDFMPEDIYVEWTNNGKTELNYKNTEPVLKSDGSYFMYSKLTVEKKNWVERNSYSCSVVHEGLHNHHTTKSFSRTPGGGGGSGGGGSGGGGSGGGGSQVQLVQSGAEVKKPGASVKVSCKASGYTFTRYYMHWVRQAPGQGLEWMGIINPRAGYTSYALKFQGRVTMTRDTSTSTVYMELSSLRSEDTAVYYCTSGWDVWGQGTLVTVSSASGGGGSGGGGSGGGGSHASDIQMTQSPSSLSASVGDRVTITCRASQSISTWLAWYQQKPGKAPKLLIYAASSLDSGVPSRFSGSGSGTDFTLTISSLQPEDFATYYCQQSYSFPVTFGQGTKVEIK light: EIVLTQSPATLSLSPGERATLSCRASQSVSSYLAWYQQKPGQAPRLLIYDASNRATGIPARFSGSGSGTDFTLTISSLEPEDFAVYYCQQSSNWPRTFGQGTKVEIKRADAAPTVSIFPPSSEQLTSGGASVVCFLNNFYPKDINVKWKIDGSERQNGVLNSWTDQDSKDSTYSMSSTLTLTKDEYERHNSYTCEATHKTSTSPIVKSFNRNEC
no binding | – | AB000880 (anti-PD1 control) scFv (AF000327) (scFv, also called AB000880_PD1_R04_C10) scFv: MSTSTEQKLISEEDLQVQLVQSGAEVKKPGASVKVSCKASGYTFTTYYMHWVRQAPGQGLEWMGIINPSGGGTLYAQKFQGRVTMTRDTSTSTVYMELSSLRSEDTAVYYCAAGLFIWGQGTTVTVSSASGGGGSGGGGSGGGGSHASDIVMTQSPDSLAVSLGERATINCKASQSLLHSSSNKNYLAWYQQKPGQPPKLLIYWASTRESGVPDRFSGSGSGTDFTLTISSLQAEDVAVYYCQQYYSTPITFGPGTKVDIKGSGLNDIFEAQKIEWHEGKPIPNPLLGLDST
